From article PMC4161438 (PLoS Pathogens, 2014)

Experiments:
elastase = molecular target: T1, elastase (Homo sapiens, UniProt P08246); conditions: pathologic conditions associated with neutrophil dysfunction; ref [22]; cited from earlier work
T1 construct: purchased Elastin Products Company, Inc. (Owensville, MO, USA)
T1 sequence (P08246 30-267): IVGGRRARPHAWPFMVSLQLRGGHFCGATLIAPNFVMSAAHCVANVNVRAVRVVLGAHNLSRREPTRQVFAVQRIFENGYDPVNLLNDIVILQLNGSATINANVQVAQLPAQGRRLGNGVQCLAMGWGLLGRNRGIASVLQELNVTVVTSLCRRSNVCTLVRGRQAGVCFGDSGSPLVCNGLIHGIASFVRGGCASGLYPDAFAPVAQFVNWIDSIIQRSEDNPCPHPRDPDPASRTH
Source text: Neutrophils also release granule contents containing enzymes such as elastase, proteinase-3, and cathepsin G. Elastase, a particularly inflammatory enzyme, interferes with thrombomodulin function, and cleaves TF pathway inhibitor (TFPI), the physiological inhibitor of the extrinsic pathway. […] Elastase also induces proteinase-activated receptor activation, contributes to cytokine production and processing, inactivates metalloprotease inhibitors, deg ...

neutrophil = conditions: migration induced by PAF, fMLP or IL-8; ref [49]–[51]; cited from earlier work
Source text: Once released, serine protease may bind to the cell surface and remains relatively inaccessible to inhibitors, in contrast to soluble enzymes, [48]. Elastase and other serine proteases reportedly modulate several functions of neutrophils, including chemokine activation and degradation, cell recruitment, receptor activation, activation of lymphocytes, NET formation, and cleavage of adhesion molecules, apoptotic proteins, and anticoagulants. Assay ...

inflamed microvessels = tested on: inflamed microvessels; parameters: method as in PMID 8400269; conditions: intravital microscopy of inflamed microvessels; ref [50]; cited from earlier work
neutrophils [1] = assay: Neutrophil-induced coagulation; assay type: cell-based, human; conditions: neutrophils with PMA 50 nM, 3 h; 370 sec without PMA
Procedure: (§1) A) Platelet aggregation. Washed human platelets were stimulated with elastase only (500 nM, left panel), or cathepsin G only (110 nM, middle tracing), or elastase followed by cathepsin G (right tracing). […] Aggregation response was monitored by turbidimetry using a Lumi-Aggregometer. D) TFPI cleavage. […] After 2 h, reactions were stopped by addition of LDS loading buffer (under reducing conditions, 10 mM DTT), boiled for 5 min, and loaded in 4–12% Nu-PAGE gel. Gels were Coomassie Blue-stained. E) Neutrophil-induced coagulation. […] Fifty µl of this suspension was added to 50 µl of plasma, and reactions were started by addition of CaCl2 (12.5 mM, final concentration)(*, p<0.05).
(§2) Whole blood (5 mL collected in 0.5 mL of 3.2% sodium citrate) from healthy donors was diluted in an equal volume of PBS, layered over 5 mL of HISTOPAQUE solution (10771, Sigma Aldrich), and centrifuged for 40 min, at 400×g, at room temperature. The lower interphase having granulocytes was collected and transferred to a 15-ml Falcon tube and resuspended in 10 ml ammonium chloride lysis buffer (1.7 M NH4Cl, […], 1 mM EDTA) to lyse red blood cells. Lysis was carried out twice followed by centrifugation for 10 min at 400×g. Neutrophils were washed with PBS and resuspended at 1×10^6 cells/mL in high glucose DMEM (GIBCO). Neutrophils were kept on ice. […]

neutrophils [2] = assay: NETs formation; assay type: cell-based, human; conditions: PMA 5 nM, 3 h, no inhibitor
Procedure: Left panel, non-activated neutrophil (no PMA). Formation of NETs was visualized under confocal microscopy, using antibody against citrullinated histone. Representative experiment is shown (4 different donors). B) Quantification. Performed as described in Methods.
as §2, with “400×g.” for “400×g. Neutrophils were washed with PBS and resuspended at 1×10^6 cells/mL in high glucose DMEM (GIBCO). Neutrophils were kept on ice.”
Cells were fixed with 500 µl of 4% paraformaldehyde (final concentrations) for 10 min, washed 3 times with PBS and incubated for 10 min with blocking solution (PBS, 10%FBS, 5 mg/ml BSA). […] NETs were quantified according to Farley et al. Briefly, NETs were identified on digitalized images as Hoechst-positive fibrils emanating from cells with an overall length at least twice as long as the cell diameter and were counted for at least two fields of view per variable. Results were expressed as the percentage of NETs/total number of granulocytes.

bacterial strains = assay: Minimum inhibitory concentration (MIC), control over all strains; assay type: cell-based; conditions: ciprofloxacin quality control, 1024-0 ng/ml, each strain; not shown
normal human plasma [3] = assay: aPTT; assay type: biochemical; conditions: heparin control 10 µg/ml; not shown
Procedure: (§3) aPTT and PT were evaluated on a STart 4 stago coagulometer (Diagnostica Stago, Parsippany, NJ, USA). Freeze-dried, citrated, normal human plasma was resuspended in ultra-pure water. […] Then, 50 µl of pre-warmed aPTT reagent (STA PTT; Diagnostica Stago, Asnières sur Seine, France) was added and incubated for an additional 2 min. CaCl2 (50 µl at 25 mM) was added to start reactions. […] Then, 100 µl of the PT reagent (NEOplastine CI plus; Diagnostica Stago) was added. Time for clot formation was recorded in duplicate.

normal human plasma [4] = assay: PT; assay type: biochemical; conditions: heparin control 100 µg/ml; not shown
Procedure: as §3

washed human platelets [5] = assay: Platelet aggregation, cathepsin G-induced; assay type: cell-based; conditions: low dose cathepsin G 110 nM, no inhibitor
Procedure: as §1
(§4) Platelet-rich plasma was obtained by plateletpheresis from medication-free platelet donors at the Department of Transfusion Medicine (NIH blood bank). Washing of platelets and platelet aggregation were performed in a Lumi-aggregometer (Chronol-Log, Haverstown, MD, USA) as described, [87].

neutrophil elastase [6] = molecular target: T2, neutrophil elastase (Homo sapiens, UniProt P08246); assay: SPR
T2 chain: T1 sequence (P08246 30-267)

neutrophil elastase [7] = molecular target: T2, neutrophil elastase; assay: enzyme inhibition assay (chromogenic substrate, Cheng-Prusoff)
washed human platelets [8] = assay: Platelet aggregation, elastase followed by cathepsin G; assay type: cell-based; conditions: elastase 500 nM, no inhibitor
Procedure: as §1, §4

[9] = tested on: human neutrophil elastase; assay: TFPI cleavage by elastase (SDS/PAGE); assay type: biochemical; conditions: elastase 0.8 µg/ml, TFPI 1 µg, 2 h at RT, no inhibitor
Procedure: as §1
After 2 h at RT, reactions were stopped by addition of Laemmli buffer (supplemented with dithiothreitol) and boiled for 5 min. Proteins were separated by 4% to 12% NuPAGE (MES buffer); gels were stained with Coomassie Blue R-250 and destained with 40% methanol. See Blue molecular weight (mol. wt.) markers were used (Invitrogen).

monocyte-like cells = tested on: monocyte-like cells; parameters: method as in PMID 16352738; conditions: internalized by monocyte-like cells, ref [57], cited from earlier work

Molecule: Cc1c(-c2ccnn2C)cc(C(=O)NCc2ccc(S(C)(=O)=O)cn2)c(=O)n1-c1cccc(C(F)(F)F)c1 [AZD9668]
- clinical trial results (elastase): mixed results

Molecule: CO[C@H]1C(=O)N2C(C(=O)N3CCC[C@H]3C(=O)O)=C(COC(C)=O)CS(=O)(=O)[C@H]12 [L658758, reference compound]
- chemotactic neutrophil functions (neutrophil): blocks chemotactic neutrophil functions
- neutrophil transmigration (inflamed microvessels): inhibition of neutrophil transmigration

Molecule: CCCCCCCCCCCCCC(=O)O[C@@H]1[C@@H](C)[C@@]2(O)[C@@H](C=C(CO)C[C@]3(O)C(=O)C(C)=C[C@@H]23)[C@@H]2C(C)(C)[C@]12OC(C)=O [PMA, Phorbol 12-myristate 13-acetate, reference compound]
- clotting time (neutrophils [1]): 250 s
- induction of NETs (neutrophils [2]): induces a strong response

Molecule: O=C(O)c1cn(C2CC2)c2cc(N3CCNCC3)c(F)cc2c1=O [ciprofloxacin]
- MIC (bacterial strains): < 1 mg/L

Molecule: CC(C)(C)C(=O)Oc1ccc(S(=O)(=O)Nc2ccccc2C(=O)NCC(=O)O)cc1 [sivelestat]
- clinical trial results (elastase): mixed results

Molecule: heparin
- aPTT (normal human plasma [3]): prolonged
- PT (normal human plasma [4]): prolonged

B1: cathepsin G: neutrophil protease used as platelet agonist (protein, UniProt P08311 21-244, looked up)
Cathepsin G: IIGGRESRPHSRPYMAYLQIQSPAGQSRCGGFLVREDFVLTAAHCWGSNINVTLGAHNIQRRENTQQHITARRAIRHPQYNQRTIQNDIMLLQLSRRVRRNRNVNPVALPRAQEGLRPGTLCTVAGWGRVSMRRGTDTLREVQLRVQRDRQCLRIFGSYDPRRQICVGDRRERKAAFKGDSGGPLLCNNVAHGIVSYGKSSGVPPEVFTRVSSFLPWIRTTMRS
- platelet activation by cathepsin G only (washed human platelets [5]): activate platelets

B2: Agaphelin 1-58 (protein)
chain: DINSEMATCACQLIYRPVCASNNESYSNECVLKCASETPTGRSIGLHKVKDGNCNGEF
- Kd (neutrophil elastase [6]): 0.0174 µM
- Ki (neutrophil elastase [7]): 0.00922 µM

B3: elastase: neutrophil elastase, enzyme used as stimulus (protein, UniProt P08246 30-267, looked up)
Neutrophil elastase: T1 sequence (P08246 30-267)
- shape change or aggregation by elastase only (washed human platelets [8]): does not promote shape change or aggregation
- TFPI cleavage by elastase [9]: cleaves TFPI

B4: Eglin C: pharmacologic inhibitor of elastase (protein, UniProt P01051 1-70, looked up)
Eglin C: TEFGSELKSFPEVVGKTVDQAREYFTLHYPQYDVYFLPEGSPVTLDLRYNRVRVFYNPGTNVVNHVPHVG
- chemotactic neutrophil functions (neutrophil): blocks chemotactic neutrophil functions
- neutrophil transmigration (inflamed microvessels): inhibition of neutrophil transmigration

B5: secretory leukocyte proteinase inhibitor (protein, UniProt P03973 26-132, looked up)
Antileukoproteinase: SGKSFKAGVCPPKKSAQCLRYKKPECQSDWQCPGKKRCCPDTCGIKCLDPVDTPNPTRRKPGKCPVTYGQCLMLNPPNFCEMDGQCKRDLKCCMGMCGKSCVSPVKA
- chemotactic neutrophil functions (neutrophil): blocks chemotactic neutrophil functions
- p65 binding (monocyte-like cells; binds NF-κB binding sites): inhibit p65 binding
- TNF-α and IL-8 generation (monocyte-like cells): promote inhibition of TNF-α and IL-8 generation
